Assay: yeast display, Sf9 membrane polyspecificity reagent, FACS + sequencing; frameworks hold sequencing errors
Summary of the method: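 Galactose induction of a Saccharomyces cerevisiae BJ5465 synthetic nanobody display library ran 36–48 hours. The cells were then stained for 1 hour at 4 °C with 10% biotinylated, detergent-solubilized Sf9 membrane reagent, pulled down on streptavidin microbeads and FACS-sorted into low and high (top ~1%) gates on expression and reagent-binding fluorescence. Labels for polyreactivity follow the gate of origin.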

Row | Sequence | polyreactivity (PSR sort gate)
1 | QVQLVESGGGLVQAGGSLRLSCAASGSTFITYAMGWYRQAPGKERELVAAIRWSGGGTYYADSVKGRFTISRDTAKNTVYLQMNSLKPEDTAVYYCAADHFNYTTGRDYWGQGTQVTVSS | low polyreactivity
2 | QVQLVESGGGLVQAGGSLRLSCAASGSTFWKYVMGWYRPAPGKERELVAAITSRGGSTYADSVKGRFTISRDNAKNTVYLLMNSLKPEDTAVYYCAATKFWYYGYDYWGQGTQVTVSS | low polyreactivity
3 | QVQLVESGGGLVQAGGSLRLSCAASGSIFPYYAMGWYRQAPGKERELVATISNSGGSTYYADSVKGRFTISRDNAKNTVYLQMNSLKPEDTAVYYCAADRGSYPYTGDYWGQGTQVNVSS | low polyreactivity
4 | QVQLVESGGGLVQAGGSLRLSCAASGRIFVYYTMGWYRQAPGKERELVAAITGSGGSTYYADSVKGRFTISRDNAKNTVYLQMNSLKPEDTAVYYCAAQLGWWGSGYWGQGTQVTVSS | high polyreactivity
5 | QVQLVESGGGLVQAGGSLRISCAASGSTFVRNAMGWYRQAHGKERELVAAISVDGSSTYDADSVKGRFTISRDNAKNTVYLQMNSLKREDTAVYYCNADWEYRDFYDITYDYWGQGTQVTVSS | low polyreactivity
6 | QVQLVESGGGLVQAGGSLRLSCAASGIIFSYYAMGCYRQAPGKERELVAAISWSGGSTYYADSVKGRFTISRDNAKNTVYLQMNSLKPEDTAVYYCAADDYLAYVYWGQGTQVTVSS | high polyreactivity
7 | QVQLVESGGGLVQAGGSLRLSCAASGLIFVSYAMGWYRQAPGKERELVAAISSGGSTYYADSVKGRFTISRDNAKNTVYLQMNSLKPEDTAVYYCAAEYVFRGYVGYDYWGQGTQVTVSS | low polyreactivity
8 | QVQLVESGGGLVQAGGSLRLSCAASGSNFDIYGMGWYRQAPGKERELVASISGGAGSTNYADSVKGRFTISRDNAKNTVYLQMNSLKPEDTAVYYCAAEVYVPDSFQHKFDVEYEYWGQGTQVTVSS | low polyreactivity
9 | QVQLVESGGGLVQPGGSLRLSCAASGFTFYTYAMGWYRQAPGKERELVATISSGGRTNYADSVKGRFTISRDNAKNTVYLQKNSLKPEDTAVYYCNIRLRGGAVRFDSWGQGTQVTVSS | low polyreactivity
10 | QVQLVESGGGLVQAGGSLRLSCAASGSIFKPYAMGWYRQAPGKERELVAAISYSGGSTYYADSVKGRFTISRDNAKNSVYLQMNSLKPEDTAVYYCAKRSTSRGYDYWGQGTQVTVSS | high polyreactivity
11 | QVQLVESGGGLVQAGGSLRLSCAASGSIFIFNAMGWYRQAPGKEREFVARIRRDSSTNYADSVKGRFTISRDNAKNTVYLQMNSLKPEDTAVYYCAAKRFYRRVELNSWGQGTQVTVSS | low polyreactivity
12 | QVQHVESGGGLVQAVGSLRLSCAASGIIFPRTAMGWYGQAPGKERELVAGISRSGGSTSYADSVKGRFTISRDNAKNTVYLQMNSRKPEDTAVYYCATRGHPFKKSYGSWGQGTQVTVSS | high polyreactivity
13 | QVQLVESGVGLVQAGGILRLSCAASGRIFNGYALGWYRQAPGKERELVAVITWNGGSTYYADSVKGRFTISRDNAKNTVYLQMNSLKPEETAVYYCADRRTGYYGTRDYWGQVTQVTVSS | high polyreactivity
14 | QVQLVESGGGLVQAGGSLRLSCAASGRTFVPNAMGWYRQAPGKERELVARISSGDSTYYADSVKGRFTISRDNAKNTVYLQMNSLKPEDTAVYYCAASGRQNGYGRRQYYYWGQGTQVTVSS | high polyreactivity
15 | QVQLVESGGGLGQAGGSLRLSFAASGRTFWYNAMGWYRQAPGKERELVAAISNGGSTNYADSVKGRFTISRDYATNTVYLQMNSVKPEDTAVDYCNAGLYRSPYPGRLGSRYDYWGQGTQVTVSS | high polyreactivity
16 | QVQLEESGGGLVQAGGSLRLSCAASGSIIRYNAMGWYRQAPGKERELVAAISASGGRTHYADSVKGRFTISRDNAKNTVYLQMNSLKPEYTAVYYCAASTYRVTSLYGYWGQGTQVTVSS | high polyreactivity
17 | QVQLVESGGGLVQAGGSLRLSSPASGFTFYYKGMGWYRQAPGKERELVATITSGGSTYYADSVKGRFTISSDNAKNTVYLQMNSLKPEDTAVYYCNRRISWRYVPTYDYWGQGTQVTVSS | high polyreactivity
18 | QVQLVESGGGLVQAGGSLRLSCAASGRIFHYNDMGWYRQAPWKERELVAAISTGGSTNYADSVKGRFTISRDNAKNTVYLQMNSLKPEDTAVYYCAADHPGTYPTTKFDYWGQGTQVTVSS | low polyreactivity
19 | QVQLVESGGGLVQAGGSLRLSCAASGSTFYFNAMGWYRPAPGKERELVAAIDWSGGSTYYADSVKGRFTISRDNAKNTVYLQMNSLKPEDTAVYYCAADISVGRYGDMDYYYKVDYWGQGTQVTVSS | low polyreactivity
20 | QVQLVESGGGLVQAGGSLRLSCAASGITFRRNAMGWYRQAPGKERELVARITGSGGSTYYADSVKGRFTISRDNAKNTVYLQMNSLKPEATAVYYCATERYGKYAMDYWGQGTQVTVSS | high polyreactivity
21 | KVQRVDSGGGLVQAGGSLRLSCAASGSILGPYAMGWYRQAPGKERELVAGISGSGTRTYYADSVKGRFTISRDNAKNTVYLQMNSLKPEDTAVYYCAARYYSSWFRYPSYDYWGQGTQVTVSS | high polyreactivity

Row | Sequence | polyreactivity (PSR sort gate)
22 | QVQLVESGGGLVQAGGSLRLSCAASGGTFRRYAMGWYRQAPGKERELVAAISWTGGSTYYADSVKGRFTISRDNAKNTVYLQMNSLKPEDTGVYYCAAVGSSSSKGGYWGQGTQVTVSS | high polyreactivity
23 | QVQLVESGVGLVQAGGSLRLSCAASGFIFRFYTMGWYRQAPGKERELVAAISGSGGRTYYADSVKGRFTISRDYANNTVYVQMNRLKPEDTEVYYCNKQFLYPSYDYWGQGTQVTVSS | high polyreactivity
24 | QVQLVESGGGLVQAGGSLRLSCAASGRIFSGNGMGWYRQATGKERELVASITWSGTSTYYADSVKGGFTISRDNAKNTVYLQMNSLKPEDTAVYYCNTRTSRRIWYSKSGKRYDYWGQGTQVTVSS | high polyreactivity
25 | QVQLVESGGGLVQAGGSLRLSCAASGSTYTGYTMGWYRQAPGKERELVAAITYRGGSTYYADSVKGRITISRDNAKNTVYLQMNSLKREDTEVYYCAARSFFIMYYWGQGTQVTVSS | low polyreactivity
26 | QVQLVESGGGLVQAGGSLRLSCAASGGIFYYYAMGWYRQAPGKERQLVAGISADGGSTYYADSVKGRFTISRDNAKNTVYLQMNSLKPEDTAVYYCAADGQFDDYYSLAFDYDYWGQGTQVTVSS | high polyreactivity
27 | QVQLVESGGGLVQAGGSLRLSCAASGFTFRTYAMGWYRQAPGKERELVATIRRAGSTNYADSVKGRFTISRDNAKNTVYLQMNSLNPEDTAVYYCAARVVTRVRGVGYNYWGQGTQVTVSS | high polyreactivity
28 | QVQLVESGGGLVQEGGSLRLSCAASGSTFWVYVMGWYRPAAGKERELVAGISSRGGNTYYADSVKGRFTISRDKAKNSVYLQMNSLKPEDTAVYYCNAPYGGDYESARDYWGQGTQVTVSS | low polyreactivity
29 | QVQLVESGGGLVQAGGSIRLSCAASGRIFARYAMGWYRQAPGTERELVASITVSGDNTYYADSVKGRFTISRDNAKKTVYLQMNSLKPEDTAVYYCAVRAVVLFGFFEYDYWGQGTQVTVSS | low polyreactivity
30 | QVQLVESGGGLVQAGCSLRVSSAASGRIFVYYAMGRYRQAPGKERELVAAIRWTGGSTYYADSVKGRFTISRDNAKNTVYLQMNSVKPEDTAVYYCATVNRYCHFNYWGQGTQVTVSS | high polyreactivity
31 | QVQLVESGGGLVQAGGSLRLSCAASGSTFVYNVMGWYRQAPGKERELVAAITSGVRTYYADSVKGRFTISRDNAMNTVYLQMNSLKPEDTAVYYCATGLRYAKYYYWGQGTQVTVSS | high polyreactivity
32 | QVQLGESGGGLVQAGGSLRLSCAASGITFTKYVMGWYRQAPGKERELVATIRWGASSTHYADSVKGRFTISRDNAKNTVYLQMNSLKPEDTAVYYCNADGWYGAVYWWFYGFDYWGQGTQVTVSS | low polyreactivity
33 | QVQLVESGGGLVQAGGSLRLSCAASGFTFGQYAMGWYRQAPGKERELVAAISWSGGSTYYADSVKGRFTISRDNAKNTVYLQMNSLKPEDTAVYYCGEDLGDYWGQGTQVTVSS | high polyreactivity
34 | QVQLVESGGGLVQAGGSLLLSCAASGNTFVNNAMGWYRQAPGKERELVAAISRRGGTTYYADSVKGRFTISRDNAKNTVYLKMKSLKPEDTAVYYCAKYGYAFDSWGQGTQVTVSS | high polyreactivity
35 | QVQLVESGGGLVQAGGSLRLSCAASGIIFLANAMGWYRQAPGKERELVAAISLDGGRTYYADSVKGRFTISRDNAKNTVFLQMNSLKPEDTAVYYCAADYGYVILYEYWGQGTQVTVSS | low polyreactivity
36 | QVQLVESGGGLVQAGGSLRLSCAASGSIFSYNAMGWYRQAHGKERELVAAIRASGGSTYYADSVKGRFTISRDNAKNTVYLQMNSLKPEDTAVYYCAARGYGWGQGTQVTVSS | high polyreactivity
37 | QVQLVESGGGLVQAGGSLRLSCAASGFIFYHYAMGWYRQAPGKRRELVAAISYSGGSTYYADSVKGRFTISRDNGKNTVYLQMNSLKPEDPAVYYCNAVYHTRLYTLSTFDYWGQGTQVTVSS | high polyreactivity
38 | QVQLVESGEGLVQAGGSLRLSCAASGSIFTYNAMGWYRQAPGKERELVAAISRGGSTYYADSVKGRFSISRDNAKNTVNLQMNSLIPEDTAVYYCNARRYRHDGYWGQGTQVTVSS | high polyreactivity
39 | QVQLVESGGGLVQAGGSLRLSCAASGFTFPWNVMGWYRQAPGKEREFVAAISKSAGSTFYADSVKGRFTISRDNAKNTVYLQMNSLKPEDTAVYFCAKPRVPGVHVQEMYYWGQGTQVTVSS | low polyreactivity
40 | QVQLVESGGGLVQAGGSLRLSCAASGSIFGRYAMGWYRQAPGKERELVAAISYSNARTYYADSVKGRFTISRDNAKNTVYLQMNSLKPEDTAVYYCAVLRRYLVGNLVGYNYWGQGTQVTVSS | high polyreactivity
41 | QVQLVESGGGLVQAGGRLRISCAASGSIFYLYARGWYRQAPGKERELVPVITGSGGSTYYADSVKGRFTISRDNSKYTVYLQMNSLKPVDTAVYYGAADYYWGYDWGQGTQVTVSS | low polyreactivity
